Values joined by “and” are separate entries in the source; they are usually repeats but may differ in a detail not shown here. Identical values can stand only once. Like-named read-outs stand apart in the source and are kept apart here. Positions of bridges follow the written chain, without caps; N, C: chain ends.
Columns and labels:
[1] = biological target: T1, platelet derived growth factor PDGF-BB (UniProt P01127 82-190); experiment: cell-based or functional assay
[2] = biological target: T2, vascular endothelial growth factor (VEGF) (UniProt P15692-4 27-191, limits assumed); experiment: cell-based or functional assay
[3] = biological target: insulin-like growth factor-1 (IGF-1) (UniProt P05019); experiment: cell-based or functional assay
[4] = biological target: acidic fibroblast growth factor (aFGF) (UniProt P05230 16-155, limits assumed); experiment: cell-based or functional assay
[5] = biological target: T1, platelet derived growth factor PDGF-BB; experiment: inhibition of [125I]-PDGF-BB binding to NIH 3T3 cells (PDGFR), 4 °C
[6] = biological target: T2, vascular endothelial growth factor …; experiment: inhibition of [125I]-VEGF binding to NIH 3T3 cells overexpressing Flk-1, GFB-111 10 µM
[7] = biological target: T1, platelet derived growth factor PDGF-BB; experiment: cell-based or functional assay; remark: listed apart in the source
[8] = biological target: T2, vascular endothelial growth factor …; experiment: cell-based or functional assay; remark: listed apart in the source
[9] = biological target: insulin-like growth factor-1 (IGF-1) (UniProt P05019 49-118); experiment: cell-based or functional assay
[10] = biological target: T2, vascular endothelial growth factor …; experiment: cell-based or functional assay; remark: listed apart in the source
[11] = biological target: T1, platelet derived growth factor PDGF-BB; experiment: cell-based or functional assay; remark: listed apart in the source

Chain of acidic fibroblast growth factor (aFGF) (P05230 16-155 limits assumed): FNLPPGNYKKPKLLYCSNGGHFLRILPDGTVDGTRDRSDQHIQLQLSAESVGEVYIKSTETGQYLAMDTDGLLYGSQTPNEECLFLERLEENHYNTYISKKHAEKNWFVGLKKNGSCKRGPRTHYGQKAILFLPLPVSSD
Chain of insulin-like growth factor-1 (IGF-1) (UniProt P05019 49-118) (P05019 49-118 limits assumed): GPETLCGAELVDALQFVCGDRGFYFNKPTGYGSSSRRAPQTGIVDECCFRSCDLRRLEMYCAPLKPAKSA
Chain of insulin-like growth factor-1 (IGF-1) (UniProt P05019) (P05019 49-118 limits assumed): as above
T1 sequence (P01127 82-190 limits assumed): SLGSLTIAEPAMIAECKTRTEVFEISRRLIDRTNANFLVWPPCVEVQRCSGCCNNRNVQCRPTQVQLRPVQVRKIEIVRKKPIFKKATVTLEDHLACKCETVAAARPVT
T2 sequence (P15692 other isoform, or with tags, fused parts or gaps limits assumed): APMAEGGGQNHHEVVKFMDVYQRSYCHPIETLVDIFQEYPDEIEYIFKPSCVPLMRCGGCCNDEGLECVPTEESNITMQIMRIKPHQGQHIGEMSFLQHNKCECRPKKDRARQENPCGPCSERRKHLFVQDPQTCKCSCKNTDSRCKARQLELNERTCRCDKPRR

B1: GFB-111 (designed binder)
peptide: GDGY
modifications: linker N-C via 3‑aminomethyl‑5‑aminobenzamide; also: four loops on But-Calix calix[4]arene scaffold
IC50, PDGF-BB stimulated DNA synthesis ([3H]-thymidine incorporation) [1]: 6.5 µM
IC50, PDGF-dependent activation of Erk1 [1]: 0.8 µM
IC50, PDGF-dependent activation of Erk2 [1]: 1.2 µM
IC50, PDGFR-Y-P [1]: 0.25 µM
IC50, p42/Erk2 [1]: 2.6 µM
PDGF-BB stimulation of receptor tyrosine phosphorylation, complete block [1]: 3 µM
IC50, Flk-1-Y-P [2]: 5 µM
IC50, VEGF-stimulated Flk-1 tyrosine phosphorylation and MAPK activation [2]: 10 µM
IC50, p42 [2]: 10 µM
IC50, p44 [2]: 10 µM
% Inhibition at 100 µM, IGF1R-Y-P [3]: -12.4%
% Inhibition at 100 µM, p42 [3]: -18.4%
% Inhibition at 100 µM, p44 [3]: 10.7%
(IC50) Inhibition, p44 [4]: 68 µM per head; likely % and 51.8 µM per head; likely %
IC50 [5]: 0.25 µM
inhibition of [125I]-VEGF binding at 10 µM GFB-111 [6]: 50%

B2: GFB-113 (designed binder)
peptide: GDSD
modifications: linker N-C via 3‑aminomethyl‑5‑aminobenzamide; also: four loops on But-Calix calix[4]arene scaffold
IC50, PDGFR-Y-P [7]: 2.8 µM
IC50, p42/Erk2 [7]: 30 µM
IC50, Flk-1-Y-P [8]: < 10 µM
IC50, p42 [8]: 10 µM
IC50, p44 [8]: 10 µM
(IC50) Inhibition, p42 [4]: 53.6 µM per head; likely %
(IC50) Inhibition, p44 [4]: 64.3 µM per head; likely %
% Inhibition at 100 µM, IGF1R-Y-P [9]: -18.9%
% Inhibition at 100 µM, p42 [9]: -31.4%
% Inhibition at 100 µM, p44 [9]: 18.7%

B3: GFB-116 (designed binder)
peptide: GKGK
modifications: linker N-C via 3‑aminomethyl‑5‑aminobenzamide; also: four loops on But-Calix scaffold
IC50, PDGFR-Y-P [1]: 40 µM
IC50, p42/Erk2 [1]: 28 µM
IC50, VEGF-stimulated flk-1 tyrosine phosphorylation [10]: 3000 µM
IC50, Flk-1-Y-P [8]: 0.3 µM
IC50, p42 [8]: 5 µM
IC50, p44 [8]: 5 µM
(IC50) Inhibition, p42 [4]: 99.2 µM per head; likely % and 99.6 µM per head; likely % and 102 µM per head; likely % and 99.7 µM per head; likely %
(IC50) Inhibition, p42 (mean) [4]: 100 µM per head; likely %
(IC50) Inhibition, p44 [4]: 97.5 µM per head; likely % and 97.2 µM per head; likely % and 116 µM per head; likely % and 99.9 µM per head; likely %
(IC50) Inhibition, p44 (mean) [4]: 103 µM per head; likely %

B4: GFB-115 (designed binder)
peptide: GKGF
modifications: linker N-C via 3‑aminomethyl‑5‑aminobenzamide; also: four loops on But-Calix scaffold
IC50, PDGF-BB-stimulated PDGF receptor tyrosine autophosphorylation [11]: 50 µM
IC50, PDGFR-Y-P [7]: > 50 µM
IC50, p42/Erk2 [7]: > 50 µM
IC50, p42 [8]: 5 µM and 10 µM
IC50, p44 [8]: 5 µM and 10 µM
(IC50) Inhibition, p42 [4]: -21 µM per head; likely %
(IC50) Inhibition, p44 [4]: -23.9 µM per head; likely %
% Inhibition at 100 µM, IGF1R-Y-P [9]: -38.3%
% Inhibition at 100 µM, p42 [9]: -12.4%
% Inhibition at 100 µM, p44 [9]: 51.9%

From US20060084596A1 (UNIVERSITY OF SOUTH FLORIDA, published 2006)
